Our source for the binding result and Kd values is article PMC5199234.

For data set [1], the target named is T1, U1A N-terminal RRM (native) (UniProt P09012 1-102). Nature of the data set: SPR. For orientation: In SPR one partner is held on a chip, and binding of the other changes the refractive index at the surface.
The target of data set [2] is T1, U1A N-terminal RRM (native). In words: SPR. This is another data set of the same source.

T1 sequence (P09012 1-102): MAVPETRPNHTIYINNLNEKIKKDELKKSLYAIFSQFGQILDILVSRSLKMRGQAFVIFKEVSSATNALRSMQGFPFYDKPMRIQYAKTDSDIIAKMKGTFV

Regarding GGCAGAUCUGAGCCUGGGAGCUCUCUGCC (structured_RNA) [TAR], the binding result in data set [1] is “no binding”.
In turn, AGCUUAUCCAUUGCACUCCGGAUGAGCU (structured_RNA) [U1hpII] had an equilibrium dissociation constant (Kd) in data set [2] of approximately 0.04 nM.

As usually defined, the Kd is the constant that tells how readily two partners part at equilibrium.
